{"source": "patent US20200207850A1", "about": "(MacroGenics, published 2020)", "binders": {"B1": {"name": "5T4 mAb 2/CD3 mAb 2/CD8 mAb 1 Tri-Specific Binding Molecule (other)", "chain 1": "DVLMTQTPLSLPVSLGDQASISCRSSQSIVYSNGNTYLEWYLQKPGQSPKLLIYKVSNRFSGVPDRFSGSGSGTDFTLKISRVEAEDLGVYYCFQGSHVPFTFGSGTKLEIKGGGSGGGGEVQLVESGGGLVQPGGSLRLSCAASGFTFSTYAMNWVRQAPGKGLEWVGRIRSKYNNYATYYADSVKGRFTISRDDSKNSLYLQMNSLKTEDTAVYYCVRHGNFGNSYVSWFAYWGQGTLVTVSSGGCGGGEVAALEKEVAALEKEVAALEKEVAALEKGGGDKTHTCPPCPAPEAAGGPSVFLFPPKPKDTLMISRTPEVTCVVVDVSHEDPEVKFNWYVDGVEVHNAKTKPREEQYNSTYRVVSVLTVLHQDWLNGKEYKCKVSNKALPAPIEKTISKAKGQPREPQVYTLPPSREEMTKNQVSLWCLVKGFYPSDIAVEWESNGQPENNYKTTPPVLDSDGSFFLYSKLTVDKSRWQQGNVFSCSVMHEALHNHYTQKSLSLSPGK", "chain 2": "QAVVTQEPSLTVSPGGTVTLTCRSSTGAVTTSNYANWVQQKPGQAPRGLIGGTNKRAPWTPARFSGSLLGGKAALTITGAQAEDEADYYCALWYSNLWVFGGGTKLTVLGGGGSGGGGQVQLQQPGAELVKPGASVKMSCKASGYTFTSYWITWVKQRPGQGLEWIGDIYPGSGRANYNEKFKSKATLTVDTSSSTAYMQLSSLTSEDSAVYNCARYGPLFTTVVDPNSYAMDYWGQGTSVTVSSGGCGGGKVAALKEKVAALKEKVAALKEKVAALKE", "heavy": "EVQLQQSGAELVKPGASVKLSCTASGFNIKDTYIHFVRQRPEQGLEWIGRIDPANDNTLYASKFQGKATITADTSSNTAYMHLCSLTSGDTAVYYCGRGYGYYVFDHWGQGTTLTVSSASTKGPSVFPLAPSSKSTSGGTAALGCLVKDYFPEPVTVSWNSGALTSGVHTFPAVLQSSGLYSLSSVVTVPSSSLGTQTYICNVNHKPSNTKVDKRVEPKSCDKTHTCPPCPAPEAAGGPSVFLFPPKPKDTLMISRTPEVTCVVVDVSHEDPEVKFNWYVDGVEVHNAKTKPREEQYNSTYRVVSVLTVLHQDWLNGKEYKCKVSNKALPAPIEKTISKAKGQPREPQVYTLPPSREEMTKNQVSLSCAVKGFYPSDIAVEWESNGQPENNYKTTPPVLDSDGSFFLVSKLTVDKSRWQQGNVFSCSVMHEALHNRYTQKSLSLSPGK", "light": "DVQINQSPSFLAASPGETITINCRTSRSISQYLAWYQEKPGKTNKLLIYSGSTLQSGIPSRFSGSGSGTDFTLTISGLEPEDFAMYYCQQHNENPLTFGAGTKLELRRTVAAPSVFIFPPSDEQLKSGTASVVCLLNNFYPREAKVQWKVDNALQSGNSQESVTEQDSKDSTYSLSSTLTLSKADYEKHKVYACEVTHQGLSSPVTKSFNRGEC"}, "B2": {"name": "5T4 mAb 2/CD3 mAb 2/CD8 mAb 2 Tri-Specific Binding Molecule (other)", "chain 1": "DVLMTQTPLSLPVSLGDQASISCRSSQSIVYSNGNTYLEWYLQKPGQSPKLLIYKVSNRFSGVPDRFSGSGSGTDFTLKISRVEAEDLGVYYCFQGSHVPFTFGSGTKLEIKGGGSGGGGEVQLVESGGGLVQPGGSLRLSCAASGFTFSTYAMNWVRQAPGKGLEWVGRIRSKYNNYATYYADSVKGRFTISRDDSKNSLYLQMNSLKTEDTAVYYCVRHGNFGNSYVSWFAYWGQGTLVTVSSGGCGGGEVAALEKEVAALEKEVAALEKEVAALEKGGGDKTHTCPPCPAPEAAGGPSVFLFPPKPKDTLMISRTPEVTCVVVDVSHEDPEVKFNWYVDGVEVHNAKTKPREEQYNSTYRVVSVLTVLHQDWLNGKEYKCKVSNKALPAPIEKTISKAKGQPREPQVYTLPPSREEMTKNQVSLWCLVKGFYPSDIAVEWESNGQPENNYKTTPPVLDSDGSFFLYSKLTVDKSRWQQGNVFSCSVMHEALHNHYTQKSLSLSPGK", "chain 2": "QAVVTQEPSLTVSPGGTVTLTCRSSTGAVTTSNYANWVQQKPGQAPRGLIGGTNKRAPWTPARFSGSLLGGKAALTITGAQAEDEADYYCALWYSNLWVFGGGTKLTVLGGGGSGGGGQVQLQQPGAELVKPGASVKMSCKASGYTFTSYWITWVKQRPGQGLEWIGDIYPGSGRANYNEKFKSKATLTVDTSSSTAYMQLSSLTSEDSAVYNCARYGPLFTTVVDPNSYAMDYWGQGTSVTVSSGGCGGGKVAALKEKVAALKEKVAALKEKVAALKE", "heavy": "not shown", "light": "not shown"}, "B3": {"name": "CD3 mAb 2/CD8 mAb 1/B7-H3 mAb 1 Tri-Specific Binding Molecule (other)", "chain 1": "DVQINQSPSFLAASPGETITINCRTSRSISQYLAWYQEKPGKTNKLLIYSGSTLQSGIPSRFSGSGSGTDFTLTISGLEPEDFAMYYCQQHNENPLTFGAGTKLELRGGGSGGGGEVQLVESGGGLVQPGGSLRLSCAASGFTFSTYAMNWVRQAPGKGLEWVGRIRSKYNNYATYYADSVKGRFTISRDDSKNSLYLQMNSLKTEDTAVYYCVRHGNFGNSYVSWFAYWGQGTLVTVSSGGCGGGEVAALEKEVAALEKEVAALEKEVAALEKGGGDKTHTCPPCPAPEAAGGPSVFLFPPKPKDTLMISRTPEVTCVVVDVSHEDPEVKFNWYVDGVEVHNAKTKPREEQYNSTYRVVSVLTVLHQDWLNGKEYKCKVSNKALPAPIEKTISKAKGQPREPQVYTLPPSREEMTKNQVSLWCLVKGFYPSDIAVEWESNGQPENNYKTTPPVLDSDGSFFLYSKLTVDKSRWQQGNVFSCSVMHEALHNHYTQKSLSLSPGK", "chain 2": "QAVVTQEPSLTVSPGGTVTLTCRSSTGAVTTSNYANWVQQKPGQAPRGLIGGTNKRAPWTPARFSGSLLGGKAALTITGAQAEDEADYYCALWYSNLWVFGGGTKLTVLGGGGSGGGGEVQLQQSGAELVKPGASVKLSCTASGFNIKDTYIHFVRQRPEQGLEWIGRIDPANDNTLYASKFQGKATITADTSSNTAYMHLCSLTSGDTAVYYCGRGYGYYVFDHWGQGTTLTVSSGGCGGGKVAALKEKVAALKEKVAALKEKVAALKE", "heavy": "QVQLVQSGAEVKKPGASVKVSCKASGYTFTSYWMQWVRQAPGQGLEWMGTIYPGDGDTRYTQKFKGRVTITADKSTSTAYMELSSLRSEDTAVYYCARRGIPRLWYFDVWGQGTTVTVSSASTKGPSVFPLAPSSKSTSGGTAALGCLVKDYFPEPVTVSWNSGALTSGVHTFPAVLQSSGLYSLSSVVTVPSSSLGTQTYICNVNHKPSNTKVDKRVEPKSCDKTHTCPPCPAPEAAGGPSVFLFPPKPKDTLMISRTPEVTCVVVDVSHEDPEVKFNWYVDGVEVHNAKTKPREEQYNSTYRVVSVLTVLHQDWLNGKEYKCKVSNKALPAPIEKTISKAKGQPREPQVYTLPPSREEMTKNQVSLSCAVKGFYPSDIAVEWESNGQPENNYKTTPPVLDSDGSFFLVSKLTVDKSRWQQGNVFSCSVMHEALHNRYTQKSLSLSPGK", "light": "not shown", "notes": "Site A CD3, Site B CD8, Site C B7-H3"}}, "key": {"[1]": {"biological_target": "T1, 5T4 on JIMT-1 target cells (UniProt Q13641 32-420, limits assumed)", "T1 sequence (looked up)": "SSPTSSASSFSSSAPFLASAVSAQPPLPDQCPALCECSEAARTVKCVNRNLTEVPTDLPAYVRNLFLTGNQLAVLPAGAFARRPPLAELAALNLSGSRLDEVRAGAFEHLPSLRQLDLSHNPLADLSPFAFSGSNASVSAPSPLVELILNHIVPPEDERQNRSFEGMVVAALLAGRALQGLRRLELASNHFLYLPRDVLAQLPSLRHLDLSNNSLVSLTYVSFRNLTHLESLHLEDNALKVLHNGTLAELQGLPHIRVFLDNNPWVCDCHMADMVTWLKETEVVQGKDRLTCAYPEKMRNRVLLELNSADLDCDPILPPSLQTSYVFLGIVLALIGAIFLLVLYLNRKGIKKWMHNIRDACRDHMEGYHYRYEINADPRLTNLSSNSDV", "assay": "cell-based or functional assay"}, "[2]": {"biological_target": "T2, CD8 on human T cells (PBMC) (human, UniProt P01732 22-235)", "T2 construct": "whole, on cells; The CD8+ (CD5+ CD4-) cells also carry CD3; also called CD5+ CD4- gated PBMC; CD8+ T cells", "T2 sequence (P01732 22-235)": "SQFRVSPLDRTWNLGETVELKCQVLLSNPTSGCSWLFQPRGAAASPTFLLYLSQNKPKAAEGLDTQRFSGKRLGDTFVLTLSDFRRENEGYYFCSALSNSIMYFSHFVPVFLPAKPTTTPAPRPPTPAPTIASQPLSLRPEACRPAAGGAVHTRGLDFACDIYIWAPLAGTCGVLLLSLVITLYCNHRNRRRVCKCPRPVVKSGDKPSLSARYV", "assay": "flow cytometry on human PBMC, CD5+/CD4- gated cells (bear CD8 and CD3), detection anti-human Fc (MFI)"}, "[3]": {"biological_target": "T3, B7-H3 on A498 and JIMT-1 target cells (UniProt Q5ZPR3 29-534, limits assumed)", "T3 sequence (looked up)": "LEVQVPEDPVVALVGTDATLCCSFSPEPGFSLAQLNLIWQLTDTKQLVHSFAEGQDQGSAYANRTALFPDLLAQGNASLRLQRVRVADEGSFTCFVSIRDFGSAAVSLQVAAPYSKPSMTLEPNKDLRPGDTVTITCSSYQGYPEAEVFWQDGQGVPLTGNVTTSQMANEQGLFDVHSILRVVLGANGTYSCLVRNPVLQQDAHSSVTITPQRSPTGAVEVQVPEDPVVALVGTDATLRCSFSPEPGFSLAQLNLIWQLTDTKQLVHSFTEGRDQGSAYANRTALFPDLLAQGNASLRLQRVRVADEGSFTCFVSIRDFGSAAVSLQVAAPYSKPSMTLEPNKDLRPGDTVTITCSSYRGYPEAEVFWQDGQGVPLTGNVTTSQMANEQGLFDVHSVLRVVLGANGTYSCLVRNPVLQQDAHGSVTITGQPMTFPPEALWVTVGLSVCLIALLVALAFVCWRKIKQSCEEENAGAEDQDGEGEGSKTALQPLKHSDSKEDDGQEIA", "assay": "cell-based or functional assay"}, "[4]": {"biological_target": "T2, CD8 on human T cells (PBMC)", "assay": "flow cytometry, binding to human CD5+/CD4- cells (bear CD8 and CD3) (MFI)"}}, "data": [{"binder": "B1", "values": [{"measurement": "EC50 (nM) of killing, CD4+ effector cells, JIMT1-luc target cells, E:T 5:1", "setting": "[1]", "result": 0.0435, "unit": "nM"}, {"measurement": "EC50 (nM) of killing, CD8+ effector cells, JIMT1-luc target cells, E:T 5:1", "setting": "[1]", "result": 0.0013, "unit": "nM"}, {"measurement": "EC50 (nM) of killing, PanT effector cells, JIMT1-luc target cells, E:T 5:1", "setting": "[1]", "result": 0.002, "unit": "nM"}, {"measurement": "EC50 (read off the curve)", "setting": "[2]", "result": "~2000", "unit": "pM"}]}, {"binder": "B2", "values": [{"measurement": "EC50 (nM) of killing, CD4+ effector cells, JIMT1-luc target cells, E:T 5:1", "setting": "[1]", "result": 0.0336, "unit": "nM"}, {"measurement": "EC50 (nM) of killing, CD8+ effector cells, JIMT1-luc target cells, E:T 5:1", "setting": "[1]", "result": 0.0015, "unit": "nM"}, {"measurement": "EC50 (nM) of killing, PanT effector cells, JIMT1-luc target cells, E:T 5:1", "setting": "[1]", "result": 0.0018, "unit": "nM"}, {"measurement": "EC50 (read off the curve)", "setting": "[2]", "result": "~2000", "unit": "pM"}]}, {"binder": "B3", "values": [{"measurement": "EC50 (nM) of killing, CD4+ effector cells, JIMT1-luc target cells, E:T 5:1", "setting": "[3]", "result": 0.105, "unit": "nM"}, {"measurement": "EC50 (nM) of killing, CD8+ effector cells, JIMT1-luc target cells, E:T 5:1", "setting": "[3]", "result": 0.0053, "unit": "nM"}, {"measurement": "EC50 (nM) of killing, PanT effector cells, JIMT1-luc target cells, E:T 5:1", "setting": "[3]", "result": 0.0113, "unit": "nM"}, {"measurement": "EC50 (read off the curve)", "setting": "[4]", "result": "~2000", "unit": "pM"}]}]}
